According to patent US20210332339, “NOVEL NUCLEASE DOMAIN AND USE THEREOF” (HIROSHIMA UNIVERSITY, published 2021):

Experiments:
ZFA36-ND1 = ZFA36-ND1 (Artificial (ND1 from Bacillus sp. …)); assay: cell_activity; Cel-I assay CHO-K1, stated for the sites overall; conditions: tags: TGAAARA linker; residues from the E. coli expression version (His/NLS); chain copies: 2 inferred
ZFL1-ND1-DDD = ZFL1-ND1-DDD (Artificial); assay: cell_activity; SSA, ZFL1-6bp-ZFA36, paired with ND1-RRR; about 80% with FokI-RRR; alone almost inactive; conditions: R493D/N502D
Protocol: (§1) Genes to Cells 15: 875-885). To a 96-well multiwell plate (Iwaki) treated with polylysine coat, 25 μL of serum-free D-MEM culture solution was added, and 6 μL of plasmid solution was mixed. To this, 25.7 μL of a solution containing 0.7 μL of Lipofectamine LTX (Life Technologies) per 25 μL of serum-free D-MEM culture solution was added, and the mixture was allowed to stand at room temperature for 30 minutes. During this period, HEK293T cells were dissociated from a 100 mm tissue culture dish (Iwaki) by trypsin treatment, centrifuged at 1000 rpm for 3 minutes, the supernatant was removed, and the cells were suspended again in 5 mL of the culture solution. A 10 μL cell suspension was dispensed, and the number of cells was counted. […]
(§2) Furthermore, in order to functionally convert the amino acids of the novel nuclease domains corresponding to the amino acids (D483, R487, and N496) involved in the heterodimerization of FokI-ND to the DDD-type, each pSTL-hPGRN_ZFL1-ND was used as a template and a primer pair was used to perform PCR by PrimeSTAR Max. […] Note that the amount of each ZFN plasmid in 7.2 μL of the plasmid solution used in the SSA reporter assay was changed to 120 ng for the target half-site L and 120 ng for the target half-site R. In addition, nuclease activity was measured by the Cel-I assay in the same manner as described in Example 3.

ZFA36-ND1-RRR = ZFA36-ND1-RRR (Artificial); assay: cell_activity; SSA, ZFL1-6bp-ZFA36, paired with ND1-DDD; about 60% with FokI-DDD; alone almost inactive; conditions: D489R/N543R
Protocol: as §1, §2

ZFA36-ND1-RRR (Artificial), sequence (chain, as listed by the source): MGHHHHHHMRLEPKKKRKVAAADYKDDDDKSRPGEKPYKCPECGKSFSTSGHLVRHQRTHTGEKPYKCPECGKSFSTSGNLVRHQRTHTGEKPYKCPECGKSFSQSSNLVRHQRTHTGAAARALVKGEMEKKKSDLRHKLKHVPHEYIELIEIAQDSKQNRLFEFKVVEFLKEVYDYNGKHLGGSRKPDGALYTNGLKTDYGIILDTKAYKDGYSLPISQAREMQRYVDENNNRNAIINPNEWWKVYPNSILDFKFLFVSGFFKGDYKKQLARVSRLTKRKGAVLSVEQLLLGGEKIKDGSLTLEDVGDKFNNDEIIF
ZFL1-ND1-DDD (Artificial), sequence (chain, as listed by the source): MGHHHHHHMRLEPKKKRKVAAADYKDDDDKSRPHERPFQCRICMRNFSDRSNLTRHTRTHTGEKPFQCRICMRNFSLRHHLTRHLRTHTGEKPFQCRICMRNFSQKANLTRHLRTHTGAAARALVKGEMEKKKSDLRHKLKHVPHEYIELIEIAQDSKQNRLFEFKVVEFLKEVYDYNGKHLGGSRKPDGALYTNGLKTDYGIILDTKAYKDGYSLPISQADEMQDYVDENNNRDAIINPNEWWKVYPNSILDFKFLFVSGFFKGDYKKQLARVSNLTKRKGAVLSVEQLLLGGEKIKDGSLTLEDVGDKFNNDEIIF

B1: ZFA36-ZFA36 CHO-K1 3rd site (dsDNA)
DNA 1: ACCATCTTCCTTGATGAAGATGCC
DNA 2: GGCATCTTCATCAAGGAAGATGGT
- binding signal (ZFA36-ND1): ~1.5 fold of FokI-ND

B2: ZFL1 half-site (dsDNA)
DNA 1: GAAGGTGAC
DNA 2: GTCACCTTC
- binding signal (ZFL1-ND1-DDD): ~1.6 fold

B3: ZFA36 half-site (dsDNA)
DNA 1: GAAGATGGT
DNA 2: ACCATCTTC
- binding signal (ZFA36-ND1-RRR): ~1.6 fold
